In patent publication US7172876B2, “Method of screening therapeutic agents for nerve degeneration associated diseases” (Takeda Pharmaceutical Company Limited, priority 2002, dated 2007):
Changes are numbered by the printed parent chain. Ends that are not written are not given here. * marks the point of attachment. For = O=C*

Tests used:
FPRL1 [1] = biological target: T1, FPRL1 (Homo sapiens, UniProt P25090); conditions: reported in the literature; cited from earlier work
T1 sequence (P25090 1-351): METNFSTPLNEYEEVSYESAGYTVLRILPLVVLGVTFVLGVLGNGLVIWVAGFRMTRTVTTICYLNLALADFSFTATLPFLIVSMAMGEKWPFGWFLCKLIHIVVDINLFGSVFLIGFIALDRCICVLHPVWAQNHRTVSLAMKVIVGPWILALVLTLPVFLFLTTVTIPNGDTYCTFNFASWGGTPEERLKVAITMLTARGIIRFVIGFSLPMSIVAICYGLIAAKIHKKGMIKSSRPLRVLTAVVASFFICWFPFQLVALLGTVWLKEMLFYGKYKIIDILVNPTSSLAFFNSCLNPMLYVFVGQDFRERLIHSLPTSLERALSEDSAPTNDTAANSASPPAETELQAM

FPRL2 [2] = biological target: T2, FPRL2 (Homo sapiens, UniProt P25089); conditions: reported in the literature; cited from earlier work
T2 sequence (P25089 1-353): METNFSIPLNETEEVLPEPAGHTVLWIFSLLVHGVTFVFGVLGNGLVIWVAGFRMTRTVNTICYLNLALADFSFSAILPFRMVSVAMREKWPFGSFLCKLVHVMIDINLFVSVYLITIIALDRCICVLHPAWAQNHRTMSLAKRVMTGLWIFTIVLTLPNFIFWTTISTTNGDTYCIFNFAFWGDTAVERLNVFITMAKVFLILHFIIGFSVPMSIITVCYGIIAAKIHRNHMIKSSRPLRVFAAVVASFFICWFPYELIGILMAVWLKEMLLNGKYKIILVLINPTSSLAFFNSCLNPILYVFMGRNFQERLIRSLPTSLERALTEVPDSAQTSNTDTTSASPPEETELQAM

mFPRL2 = biological target: T3, mFPRL2 (Mus musculus, UniProt O88536); assay: Inhibition of forskolin-increased intracellular cAMP in mouse FPRL2-expressing CHO cells; type: cell-based; conditions: 1 μM forskolin
T3 construct: expressed in transfected cells; host or cells: CHO cells (clone No. 15); expression vector pAKKO-111H
T3 sequence (O88536 1-351): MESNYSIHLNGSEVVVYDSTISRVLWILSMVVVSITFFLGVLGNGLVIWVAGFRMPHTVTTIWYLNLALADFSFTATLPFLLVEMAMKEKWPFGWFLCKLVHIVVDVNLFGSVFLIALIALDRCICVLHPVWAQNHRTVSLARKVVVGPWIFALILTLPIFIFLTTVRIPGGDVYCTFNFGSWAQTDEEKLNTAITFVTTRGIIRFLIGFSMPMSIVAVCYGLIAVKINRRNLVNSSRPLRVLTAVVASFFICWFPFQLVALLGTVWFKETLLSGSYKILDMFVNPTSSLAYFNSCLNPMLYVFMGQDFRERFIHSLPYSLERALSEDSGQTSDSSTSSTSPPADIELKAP
Method: (§1) CHO cells expressing each receptor were washed with an assay medium (HBSS (GibcoBRL) supplemented with 0.1% bovine serum albumin and 0.2 mM IBMX) and then cultured at 37° C. in 5% CO2 for 30 minutes. Humanin (Peptide Research Laboratory, Co.) or related substances diluted at each concentration with the assay buffer were added thereto, and then forskolin was added at a final concentration of 1 μM. The cells were cultured at 37° C. in 5% CO2 for 30 minutes. The culture supernatant was discarded, and the amount of cAMP in the cells was measured with a plate reader (ARVO sx multi-label counter, manufactured by Wallac) according to a protocol of a cAMP screen kit (Applied Biosystems). Assuming that the amount of cAMP produced in the cells to which 1 μM forskolin had been added was 100% and the amount of cAMP produced in the cells to which forskolin had not been added was 0%, the amount of cAMP upon addition of each agonist is shown in %. The concentration at which the amount of cAMP produced was inhibited by 50% (EC50) was calculated from logit-log plotting.

FPRL1 [3] = biological target: T1, FPRL1; assay: Inhibition of forskolin-increased intracellular cAMP in human FPRL1-expressing CHO cells; type: cell-based; design: expressed in transfected cells; host or cells: CHO cells (clone No. 8; the title also lists a 'Human FPRL1' clone No. 14); conditions: 1 μM forskolin
hFPRL2 = biological target: T4, hFPRL2 (Homo sapiens, UniProt P25089); assay: Inhibition of forskolin-increased intracellular cAMP in human FPRL2-expressing CHO cells; type: cell-based; conditions: 1 μM forskolin
T4 construct: expressed in transfected cells; host or cells: CHO cells (clone No. 17)
T4 sequence (P25089 1-353 G94A/S211T/D338H): T2 sequence (P25089 1-353) with G94A, S211T, D338H
Method: as §1

rFPRL1 = assay: Inhibition of forskolin-increased intracellular cAMP in rat FPRL1-expressing CHO cells; type: cell-based; conditions: 1 μM forskolin
Method: as §1

FPRL2 [4] = biological target: T2, FPRL2; conditions: reported in the literature; cited from earlier work; remark: listed apart in the source
FPRL1-GFP = assay: Inhibition of forskolin-increased intracellular cAMP in CHO cells expressing FPRL1-GFP; type: cell-based; conditions: 1 μM forskolin; CHO cells expressing FPRL1-GFP compared with mock CHO cells (vector only)
Method: CHO cells expressing FPRL1-GFP were washed with an assay medium (HBSS (GibcoBRL) supplemented with 0.1% bovine serum albumin and 0.2 mM IBMX) and then cultured at 37° C. in 5% CO2 for 30 minutes. Humanin (Peptide Research Laboratory, Co.) or related substances diluted at each concentration with the assay buffer were added thereto, and then forskolin was added at a final concentration of 1 μM. The cells were cultured at 37° C. in 5% CO2 for 30 minutes. The culture supernatant was discarded, and the amount of cAMP in the cells was measured with a plate reader (ARVO sx multi-label counter, manufactured by Wallac) according to a protocol of a cAMP screen kit (Applied Biosystems).

nerve cells = conditions: reported in the literature; cited from earlier work

Sequence of rFPRL1 (as listed by the source): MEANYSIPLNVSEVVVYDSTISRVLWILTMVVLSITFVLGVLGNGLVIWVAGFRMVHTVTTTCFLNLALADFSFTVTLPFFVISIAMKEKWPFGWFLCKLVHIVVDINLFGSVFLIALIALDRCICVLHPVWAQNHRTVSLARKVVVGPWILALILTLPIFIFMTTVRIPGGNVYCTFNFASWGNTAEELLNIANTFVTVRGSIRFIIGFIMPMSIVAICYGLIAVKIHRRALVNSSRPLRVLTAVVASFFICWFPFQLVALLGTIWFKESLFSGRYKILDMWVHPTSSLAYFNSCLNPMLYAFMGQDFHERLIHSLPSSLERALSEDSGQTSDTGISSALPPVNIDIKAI

| Molecule | reaction with mFPRL2 (inhibition of forskolin-increased intracellular cAMP) (mFPRL2) | reaction with hFPRL1 (inhibition of forskolin-increased intracellular cAMP) (FPRL1 [3]) | reaction with rFPRL1 (inhibition of forskolin-increased intracellular cAMP) (rFPRL1) | other results |
| --- | --- | --- | --- | --- |
| CCCCC[C@H](O)/C=C/C=C\C=C\C=C\[C@@H](O)[C@@H](O)CCCC(=O)O [lipoxin A4] |  |  |  | agonist of FPRL1 (FPRL1 [1]): Agonists |
| Aβ42: β-amyloid (1-42), intrinsic substance reported as agonist of FPRL1 |  |  |  | agonist of FPRL1 (FPRL1 [1]): agonist |
| Trp-Lys-Tyr-Met-Val-dMet-NH2 [W-Peptide] |  |  |  | agonist of FPRL2 (FPRL2 [2]): agonist |
| [Gly^14]-humanin: [Gly^14]-human humanin (1-24) consisting of the amino acid sequence represented by SEQ ID NO: 4 (MAPRGFSCLLLLTGEIDLPVKRRA; Human) | react | react | react | reaction with hFPRL2 (inhibition of forskolin-increased intracellular cAMP) (hFPRL2): strongly |
| formyl-Humanin: human humanin (1-24), SEQ ID NO: 3, wherein Met of the N-terminus is formylated | react |  | react |  |
| formyl-Met-Leu-Phe [fMLF] |  |  |  | reaction of human FPRL2 with fMLF (FPRL2 [4]): does not react |
| humanin: human humanin (1-24) consisting of the amino acid sequence represented by SEQ ID NO: 3 | react | react | react | decrease of the amount of intracellular cAMP increased by addition of forskolin (FPRL1-GFP): dose-dependent and specific decrease; death of nerve cells into which the familial Alzheimer's disease gene had been introduced (nerve cells): inhibited; nerve apotosis induced by adding β-amyloid (nerve cells): inhibited; reaction with hFPRL2 (inhibition of forskolin-increased intracellular cAMP) (hFPRL2): strongly |
| mt-formyl-Humanin: human humanin (1-21), SEQ ID NO: 6, wherein Met at the N-terminus is formylated (For-MAPRGFSCLLLLTSEIDLPVK) | react | strongly | react |  |
| mt-formyl-rattin: rat humanin (1-21), SEQ ID NO: 9, wherein Met at the N-terminus is formylated (For-MAKRGFNCLLLSISEIDLPVK) | react | strongly | react |  |
